Source: the supplement of paper PMC10899765

Key:
Settings in all cases: 20 nM; 72 h
MCF10A [1] = assay: percent viability (nuclei count relative to siNT); higher = more viable cells
Procedure: (§1)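 After 72 h, cells were fixed and stained with Hoechst and anti-fibrillarin, and nucleoli per nucleus were counted with CellProfiler. Values are plate-adjusted percent effect for the one-nucleolus and 5+ nucleoli phenotypes, normalised to siNT (0%) and to the positive controls siNOL11 or siKIF11 (100%), as the mean of biological triplicates. Percent viability is the nuclei count relative to siNT.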

MCF10A [2] = assay: 5+ nucleoli phenotype percent effect (relative to siNT 0% and siKIF11 100%); higher = more cells with five or more nucleoli
Procedure: as §1

MCF10A [3] = assay: one-nucleolus phenotype percent effect (relative to siNT 0% and siNOL11 100%); higher = more cells with one nucleolus (ribosome biogenesis inhibition)
Procedure: as §1

Sequence	percent viability (MCF10A [1]) [%]	5+ nucleoli phenotype percent effect (MCF10A [2]) [%]	one-nucleolus phenotype percent effect (MCF10A [3]) [%]
AAUGGCGCCACUAGGGUUGUG [hsa-miR-652-3p]	58.1	4.15	7.39
AAUGGCUGUCCGUAGUAUGGUC [hsa-miR-889-5p]	24.5	-28.6	43.3
AAUGUAAACAGGCUUUUUGCU [hsa-miR-4495]	68.8	29.4	2.68
AAUGUAGAGAUUGAUCAAAAU [hsa-miR-3668]	86.3	0.392	2.57
AAUGUGGAAGUGGUCUGAGGCAU [hsa-miR-4657]	30.7	6.84	10.1
AAUGUGGACUGGUGUGACCAAA [hsa-miR-4491]	45.4	20.6	-0.704
AAUGUGUAGCAAAAGACAGA [hsa-miR-511-3p]	18.7	-40.6	55.2
AAUGUUGGAAUCCUCGCUAGAG [hsa-miR-4781-3p]	34.3	12.4	-0.0524
AAUGUUUUUUCCUGUUUCC [hsa-miR-4307]	63.9	3.12	-12.3
AAUUCCCUUGUAGAUAACCCGG [hsa-miR-3938]	129	51.2	-32
AAUUCUGUAAAGGAAGAAGAGG [hsa-miR-4778-5p]	74.3	32.3	-8.03
AAUUGCACGGUAUCCAUCUGUA [hsa-miR-363-3p]	63.9	-15.8	5.76
AAUUGCACUUUAGCAAUGGUGA [hsa-miR-367-3p]	111	18	-12.8
AAUUUACUCUGCAAUCUUCUCC [hsa-miR-4699-3p]	87.9	-0.943	-12.5
AAUUUGGUUUCUGAGGCACUUAGU [hsa-miR-5002-5p]	32.2	1.85	27.3
ACAAAAAAAAAAGCCCAACCCUUC [hsa-miR-3613-3p]	91.6	16.2	-10.2
ACAAAGUACAGCAUUAGCCUUAG [hsa-miR-3973]	29.3	0.19	-6.17
ACAAAGUGCUUCCCUUUAGAGU [hsa-miR-520h]	173	11.9	-15
ACAAAGUGCUUCCCUUUAGAGUGU [hsa-miR-520g]	77.4	24.4	-7.99
ACAACAGUGACUUGCUCUCCAA [hsa-miR-4709-5p]	73.8	-18.3	3.79

Sequence	percent viability (MCF10A [1]) [%]	5+ nucleoli phenotype percent effect (MCF10A [2]) [%]	one-nucleolus phenotype percent effect (MCF10A [3]) [%]
ACAAGGUGUGCAUGCCUGACC [hsa-miR-4761-5p]	18.1	-24.8	53.7
ACACACUUACCCGUAGAGAUUCUA [hsa-miR-216b-3p]	59	35.7	-17.3
ACACAGUGCUUCAUCCACUACU [hsa-miR-3681-3p]	76.6	-3.88	-4.5
ACACAUGGGUGGCUGUGGCCU [hsa-miR-4717-3p]	66.4	24.6	-12.1
ACACCCUCUUUCCCUACCGCC [hsa-miR-6865-3p]	86.3	40.5	-26
ACACUGUCCCCUUCUCCCCAG [hsa-miR-6760-3p]	92.8	56.3	-27.2
ACACUUGUUGGGAUGACCUGC [hsa-miR-6500-3p]	23.8	-37.8	22.5
ACAGACUUGCUGUGAUGUUCA [hsa-miR-499b-5p]	35.2	-7.28	2.65
ACAGAGGACAGUGGAGUGUGAGC [hsa-miR-6847-5p]	51.1	-1.34	-1.08
ACAGAUUCGAUUCUAGGGGAAU [hsa-miR-10b-3p]	53.5	-9.13	15.6
ACAGCACUGCCUGGUCAGA [hsa-miR-383-3p]	54.9	-19	-8.43
ACAGCAGGCACAGACAGGCAGU [hsa-miR-214-3p]	19.3	-1.88	13.3
ACAGCCCAGCAGUUAUCACGGG [hsa-miR-5685]	57.8	-0.657	-1.32
ACAGGAGUGGGGGUGGGACAU [hsa-miR-4433-3p]	38.2	-0.614	6.34
ACAGGCACGACUGGUUUGGCA [hsa-miR-6715b-5p]	14.8	-27.8	54.7
ACAGGCAGGAUUGGGGAA [hsa-miR-4514]	18.4	-12	32.3
ACAGGCGGCUGUAGCAAUGGGGG [hsa-miR-3937]	33.1	-33.4	31.6
ACAGGGAGGAGAUUGUA [hsa-miR-4441]	18.5	-15.6	46.5
ACAGGGCCGCAGAUGGAGACU [hsa-miR-3918]	8.55	-31.2	50.3
ACAGGUGAGGUUCUUGGGAGCC [hsa-miR-125a-3p]	62.4	-0.517	5.16

Sequence	percent viability (MCF10A [1]) [%]	5+ nucleoli phenotype percent effect (MCF10A [2]) [%]	one-nucleolus phenotype percent effect (MCF10A [3]) [%]
ACAGUAGAGGGAGGAAUCGCAG [hsa-miR-936]	61.7	14.1	-2.74
ACAGUAGUCUGCACAUUGGUUA [hsa-miR-199a-3p]	67.2	18.7	-13.9
ACAGUAGUCUGCACAUUGGUUA [hsa-miR-199b-3p]	92	36.1	-19.3
ACAGUCUGCUGAGGUUGGAGC [hsa-miR-622]	86.2	-4.39	8.72
ACAUACUUCUUUAUAUGCCCAU [hsa-miR-1-5p]	47	-8.68	11.9
ACAUCCUGCUCCACAGGGCAGAGG [hsa-miR-4793-5p]	52.3	-0.984	-10.7
ACAUCGCCCCACCUUCCCCAG [hsa-miR-6785-3p]	102	55.5	-34.4
ACAUUGCCAGGGAGUUU [hsa-miR-4317]	45.1	-11	-2.43
ACAUUUUCCAGCCCAUUCA [hsa-miR-1250-3p]	12.3	-18.3	53.7
ACCAAGUCUGCGUCAUCCUCUC [hsa-miR-3691-3p]	63.2	0.0313	-5.26
ACCACUGACCGUUGACUGUACC [hsa-miR-181a-2-3p]	120	12.6	-14.1
ACCACUGCACUCCAGCCUGAG [hsa-miR-1273g-3p]	39.3	-16.5	5.96
ACCAGCCUGUGUCCACCUCCAG [hsa-miR-6849-3p]	46	-31	13.6
ACCAGCGCGUUUUCAGUUUCAU [hsa-miR-4738-5p]	51.5	13.4	7.61
ACCAGGAGGCUGAGGCCCCU [hsa-miR-665]	30.2	-29.1	40.7
ACCAGGCAAGAAAUAUUGU [hsa-miR-4645-5p]	87.5	5.96	-4.87
ACCAGGGCCAGCAGGGAAUGU [hsa-miR-6837-5p]	19.9	-15	33.6
ACCAUCGACCGUUGAUUGUACC [hsa-miR-181a-3p]	87.3	21.1	-7.58
ACCCAGGUUCCCUCUGGCCGCA [hsa-miR-4726-3p]	23.9	-34.6	51.3
